Experimental data as given in the supplement of paper PMC12042874.
± gives the uncertainty stated by the source.

Assay: amyloid nucleation score (Sup35N fusion, yeast selection) (log enrichment); library NNK3; higher = more nucleation; inactive = no reads after selection
Procedure, shortened: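 Nucleation score is defined as the DiMSum log enrichment of output over input reads, with centring on the mode score of non-aggregating sequences. A minimum of 100 input reads was required for each sequence. Reads came from Illumina sequencing of plasmid inserts from psi-negative yeast expressing Sup35N fused to peptides of 20 random codons, induced with 100 μM copper sulfate for 24 hours and grown 7 days at 30°C on medium lacking adenine and uracil.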

Substance | amyloid nucleation score
MGLIERLWWSTPIKF | inactive
MGMEIEQYNFTALLRD | inactive
MGRISVLPYLKFSYAIWY | inactive
MGSGGYNIITDGQSFFSTMA | inactive
MGVSWIII | inactive
MHPKSNGTFMFKMAN | inactive
MHSISV | inactive
MHTFSDQSISVEQRTCLQVR | inactive
MICESFVSLLLVKCELLGTA | inactive
MICHDLRSFIM | inactive
MIDRRMSFRQGDHKDCPTAH | inactive
MIIRGKPVIWMECLAVRTDR | inactive
MIKVLCTLFIDWAVAYVICH | inactive
MILTKSNSEVFEVGNKKLRV | inactive
MIRWAYLCM | inactive
MIYSTRSVFDFCGTFNTVVY | inactive
MKCFSVSVLCNLGSFLCEVT | 0.146 ± 0.9
MKGVLAKNGYIDGVLGNTAM | inactive
MKLCNVRGIKVFAFCSGSRR | 1.3 ± 0.1
MKQSDLGLKGRCDNCQFGRS | 0.092 ± 0.96
MKRGWFELMIHWDYI | inactive
MLAVRMVDTPSSCQRIKPDN | inactive
MLEEGVHINSGLMIVWYIIM | inactive

Substance | amyloid nucleation score
MLFYCN | inactive
MLIRYAVLALCSCGTNFTDL | inactive
MLLSSVPDCFSWMGLRFCGD | inactive
MLLVLR | 0.972 ± 0.1
MLMVLRGRSRDNNVQSLLFA | -0.292 ± 1.2
MLWRTDHMYY | inactive
MMCPLKLWYHVWFSGYTL | inactive
MMLYALDRVAVTLGKSMLPA | inactive
MMMCG | inactive
MMPIRKKMNHRVTWEILWQR | inactive
MMRWIDVGYLVDLYSLRISG | inactive
MMVVNRGDHQDGGEAYEVV | inactive
MNKFLSVAIQGIYVERNAHV | 1.34 ± 0.11
MNLYVSSLIGISARMWDWFS | 0.289 ± 0.25
MNTRAVSVEFRYCARYFCHA | 0.142 ± 0.93
MPFGYICWIGVCFSHD | 1.96 ± 0.081
MPFIPHLDGS | inactive
MPKAGVSTVSLSHRKVLTLP | 0.174 ± 1
MPRESLDLSTWVLVEEFIYI | inactive
MPSRCMLDSTIILYYWRFEH | 0.781 ± 0.28
MPVSYAG | inactive
MQWNWEGSLYMKIMSGMCHP | 1.02 ± 0.15
MRASCCKCVHICTYMSDRFD | 0.743 ± 0.22

Substance | amyloid nucleation score
MRHVCSCFRNDHGIDGVF | 0.06 ± 0.44
MRILKHMFQVDWLVNAMDAE | inactive
MRNTFRTHSKQYHHG | inactive
MRRCDVWKIYGYMLSPPLPR | inactive
MRTLYFPKCMTRLKMHVSSI | inactive
MRWVHSHANHPLHA | inactive
MRYSFRCF | inactive
MSADSCCSSCLVSTGTRVTF | inactive
MSDEDRYNRWFDTGVGVLDR | inactive
MSFGKSCEVKGGL | inactive
MSKYVGRIGCLWGNSASRAR | inactive
MSLHCDHIAEGNELWGDVRR | inactive
MSLLASLLIMYIPIRYNVE | inactive
MSMDHLMTYLRLATQVALRS | inactive
MSMPWNNHMISNVYRSYFVA | inactive
MSPWSRMF | inactive
MSSGLTVSNVL | inactive
MSSLDARIMSHYVYMVIDPV | inactive
MSSNFTRS | inactive
MSSRPGFNT | inactive
MSVDGLHCRWPSWHVKILLD | inactive
MSWLKQGLTDR | inactive
MSYSGTAHGDFLLRSCPARM | inactive

Substance | amyloid nucleation score
MTGDPGQFNAGDRLM | inactive
MTLFVSDTVRSLGNGNWA | inactive
MTSSVP | inactive
MTWNTGLYSRGRHGFYGFST | 1.26 ± 0.15
MTYST | inactive
MVCFYHTGELPDWENR | inactive
MVCIDPFNENLVRVRMTVIG | inactive
MVFAMTYVLCDDMWSVIGHF | 0.141 ± 0.26
MVGRGEQVM | inactive
MVNLSLCLNVVAEGLNFDRF | 1.66 ± 0.091
MVVSVQIVFVQVTDMVYHVN | 0.393 ± 0.24
MVWWNPNSWNVMLSLIWCLV | 0.752 ± 0.14
MWITIS | inactive
MWRPSHTYCLSNGKVECREC | inactive
MWSIVSGDKVGSSPVLGGCV | inactive
MWSVPLKSQAILYTFDCVSL | 0.174 ± 0.44
MWVGDKPSGSRRLVLGVRVT | -0.258 ± 0.91
MWVPYSAFRMDQEFGFYGIT | 0.057 ± 0.24
MYGEMYCRFCVVVVGWLQFV | inactive
MYNNC | inactive
MYTCLVPSSLK | inactive
MYWWRFVGLQSIYSGQLCKR | inactive
MYYAN | inactive

Substance | amyloid nucleation score
MYYMVTGRLVICRN | inactive
NAAGCSVSGCIG | inactive
NAFWAILVGPIDPEVSGTYG | inactive
NARVDVRRVVLHAKMPSFTI | inactive
NASMNKYYVRFTFGNPHVLL | 2.52 ± 0.061
NAYLCGWL | inactive
NCGSYSKSDN | inactive
NCICDIYILTLELSLLRRWV | inactive
NCICWASYQTGLE | inactive
NCIYLVLN | inactive
NCLVVTGRKVPSETHLVFLM | inactive
NCNKMCRSCFRCQKTFWVWF | inactive
NCSYIDQR | 0.483 ± 0.14
NCTDLLRMLYGMRRGINSNC | inactive
NCTVYLGTFCCSQGFAGLPP | 3.07 ± 0.053
NCVPSCSAAFKSISRQPHGS | 0.115 ± 0.88
NDCISHVSSCRMYDETKVCL | inactive
NDGTSILSTQSLSVRWMVRV | inactive
NDHLLL | inactive
NDHPVNSWPVGYSADINQVL | inactive
NDNINRSPESSALWYD | inactive
NDQKIPLARYLG | inactive
NDREWNKRYGINTKQPAAVT | inactive

Substance | amyloid nucleation score
NDSTHLRSRC | inactive
NDWRCKEVTSSDIWAFVYCS | 0.967 ± 0.12
NEGSNATC | 0.713 ± 0.13
NENYVIAGC | inactive
NFDKFDRRRWVMIIVYMAPA | inactive
NFDTDGTALRKLR | inactive
NFGHMY | inactive
NFGTWDQSVLSLRMKLTCVP | inactive
NFKLLLTSPWYATV | inactive
NFLSALIYILMAYDRDFVYR | inactive
NFSNHCRKLGEME | inactive
NGGAHSLGK | inactive
NGHKEESILCGNGYWKHASE | inactive
NGIVPLSHLFYIGDSVKWWG | inactive
NGLVQSMFVIRSLAQRNERR | inactive
NGPVGN | inactive
NGVLASWWC | inactive
NGVLSSA | inactive
NGWLLTRLSMHLTFGIYMLV | inactive
NGYMSRVHLCPKCFRLHGFR | inactive
NGYPHLIQHYLVNAG | inactive
NHCNTCSWFLQTS | 1.45 ± 0.14
NHDIDALTQTQPTDNSYL | inactive

Substance | amyloid nucleation score
NHFAAMLSCFSSRVVVTYQA | inactive
NHFFALSLVII | inactive
NHIYGMSAFQSGHCGPCRSN | inactive
NHNPVCGVDNRMKVVRLYYV | inactive
NHQIVRDDRCYKLLIQAVRM | inactive
NHSVNAARNLQHQSYCKKSV | inactive
NIAIGLYRFKMLDGKRSCML | inactive
NIDVYDLMRLSVFDNKMATG | inactive
NIIDKW | -0.357 ± 1.4
NINYSPFISAQVGLIMAPLN | inactive
NIRICWG | 0.795 ± 0.27
NIRIDMMWSLSCHKLG | inactive
NISSVVLGGGLRVGARRI | inactive
NITVHVNRMKFCCMYAESHD | inactive
NIVSFVGDVFHSLLVG | inactive
NIWRMYEIRSVSGKKLRVDI | inactive
NKLFEDSQAETS | inactive
NKVVAKHGFGVRSFKIWGLD | inactive
NKVYLGLTKLHSSDPSEMAC | 2.18 ± 0.067
NLDRLYI | inactive
NLEYDPIRHRNVLNPSWFCS | inactive
NLFFSVSMSAEFEW | 0.078 ± 0.37
NLFGC | inactive
